{"source": "patent US20180369203", "biological_target": "GST-tagged active human MEK1, Q02750"}
{"protein": "GST-tagged inactive human ERK1 (protein) MAAAAAQGGGGGEPRRTEGVGPGVPGEVEMVKGQPFDVGPRYTQLQYIGEGAYGMVSSAYDHVRKTRVAIKKISPFEHQTYCQRTLREIQILLRFRHENVIGIRDILRASTLEAMRDVYIVQDLMETDLYKLLKSQQLSNDHICYFLYQILRGLKYIHSANVLHRDLKPSNLLINTTCDLKICDFGLARIADPEHDHTGFLTEYVATRWYRAPEIMLNSKGYTKSIDIWSVGCILAEMLSNRPIFPGKHYLDQLNHILGILGSPSQEDLNCIINMKARNYLQSLPSKTKVAWAKLFPKSDSKALDLLDRMLTFNPNKRITVEEALAHPYLEQYYDPTDEPVAEEPFTFAMELDDLPKERLKELIFQETARFQPGVLEAP", "values": [{"measurement": "in vitro HSF1 Ser326 phosphorylation by GST-MEK1 in the presence of inactive GST-ERK1, detected by immunoblotting", "value": "recombinant ERK1 proteins impeded in vitro HSF1 Ser326 phosphorylation by recombinant MEK1 proteins"}]}
